Data reported in article PMC8979966.
Like-named read-outs stand apart in the source and are kept apart here.

How the values were obtained:
[1] = molecular target: TCR 868 (single-chain Vbeta-linker-Valpha); test: YAMTAD: yeast mating between pMHC-displaying and TCR-displaying yeast, diploid selection, deep sequencing; 3 biological x 4 technical repeats; details: S. cerevisiae mating; TCR 868 group vs control TCR A6 group; higher = more enriched with TCR 868 than with the control TCR A6; not monotonic in affinity (misses both ways); not an affinity; keep out of graded; partner unresolved; scale: ratio: mean frequency with TCR 868 / mean frequency with control TCR A6, each normalised to the 3* stop peptide; numbering: sequential-on-construct, sequence starts at 1
[2] = molecular target: TCR 868 (single-chain Vbeta-linker-Valpha); details: higher = more enriched with TCR 868 than with the control TCR A6; not monotonic in affinity (misses both ways); scale: ratio: mean frequency with TCR 868 / mean frequency with control TCR A6, each normalised to the 3* stop peptide; numbering: sequential-on-construct, sequence starts at 1

Substance | screen value [1] | screen value [2]
SL9 peptide (HIV-1 Gag, […]) presented by HLA-A*02:01 3W (SLWNTVATL; codon TGG) | 1.2 | –
SL9 peptide (HIV-1 Gag, […]) presented by HLA-A*02:01 3F (SLFNTVATL; codon TTT) | 2.02 | –
SL9 peptide (HIV-1 Gag, […]) presented by HLA-A*02:01 3G (SLGNTVATL; codon GGG) | 0.959 | –
SL9 peptide (HIV-1 Gag, […]) presented by HLA-A*02:01 3S (SLSNTVATL; codon AGT) | 1.08 | –
SL9 peptide (HIV-1 Gag, […]) presented by HLA-A*02:01 3R (SLRNTVATL; codon CGT) | 1.04 | –
SL9 peptide (HIV-1 Gag, […]) presented by HLA-A*02:01 3L (SLLNTVATL; codon TTG) | 1.84 | –
SL9 peptide (HIV-1 Gag, […]) presented by HLA-A*02:01 3R (SLRNTVATL; codon CGG) | 1.09 | –
SL9 peptide (HIV-1 Gag, […]) presented by HLA-A*02:01 3S (SLSNTVATL; codon TCG) | 1.06 | –
SL9 peptide (HIV-1 Gag, […]) presented by HLA-A*02:01 3V (SLVNTVATL; codon GTT) | 1.16 | –
SL9 peptide (HIV-1 Gag, […]) presented by HLA-A*02:01 3L (SLLNTVATL; codon CTT) | 2.02 | –
SL9 peptide (HIV-1 Gag, […]) presented by HLA-A*02:01 3A (SLANTVATL; codon GCT) | 1.12 | –
SL9 peptide (HIV-1 Gag, […]) presented by HLA-A*02:01 3H (SLHNTVATL; codon CAT) | 1.25 | –
SL9 peptide (HIV-1 Gag, […]) presented by HLA-A*02:01 3V (SLVNTVATL; codon GTG) | 1.11 | –
SL9 peptide (HIV-1 Gag, […]) presented by HLA-A*02:01 3Q (SLQNTVATL; codon CAG) | 1.16 | –
SL9 peptide (HIV-1 Gag, […]) presented by HLA-A*02:01 3S (SLSNTVATL; codon TCT) | 1.08 | –
SL9 peptide (HIV-1 Gag, […]) presented by HLA-A*02:01 3I (SLINTVATL; codon ATT) | 1.28 | –
SL9 peptide (HIV-1 Gag, […]) presented by HLA-A*02:01 3E (SLENTVATL; codon GAG) | 0.967 | –
SL9 peptide (HIV-1 Gag, […]) presented by HLA-A*02:01 3T (SLTNTVATL; codon ACT) | – | 1.11
SL9 peptide (HIV-1 Gag, […]) presented by HLA-A*02:01 3T (SLTNTVATL; codon ACG) | – | 1.07
SL9 peptide (HIV-1 Gag, […]) presented by HLA-A*02:01 3A (SLANTVATL; codon GCG) | 1.01 | –
SL9 peptide (HIV-1 Gag, […]) presented by HLA-A*02:01 3C (SLCNTVATL; codon TGT) | 1.1 | –
SL9 peptide (HIV-1 Gag, […]) presented by HLA-A*02:01 3D (SLDNTVATL; codon GAT) | 1.15 | –
SL9 peptide (HIV-1 Gag, […]) presented by HLA-A*02:01 3N (SLNNTVATL; codon AAT) | 0.989 | –
SL9 peptide (HIV-1 Gag, […]) presented by HLA-A*02:01 3G (SLGNTVATL; codon GGT) | 0.969 | –
SL9 peptide (HIV-1 Gag, […]) presented by HLA-A*02:01 3P (SLPNTVATL; codon CCT) | 0.983 | –
SL9 peptide (HIV-1 Gag, […]) presented by HLA-A*02:01 3L (SLLNTVATL; codon CTG) | 1.89 | –
SL9 peptide (HIV-1 Gag, […]) presented by HLA-A*02:01 3K (SLKNTVATL; codon AAG) | 1.21 | –
SL9 peptide (HIV-1 Gag, […]) presented by HLA-A*02:01 3R (SLRNTVATL; codon AGG) | 1.06 | –
SL9 peptide (HIV-1 Gag, […]) presented by HLA-A*02:01 3M (SLMNTVATL; codon ATG) | 1.16 | –
SL9 peptide (HIV-1 Gag, […]) presented by HLA-A*02:01 3P (SLPNTVATL; codon CCG) | 1.03 | –
